Results reported in patent US20220106400A1 (Bristol-Myers Squibb, published 2022).
Changes are numbered by the printed parent chain. Names and notes keep the numbering of the source. Values joined by “and” are separate entries in the source; they are usually repeats but may differ in a detail not shown here. Identical values can stand only once. Like-named read-outs stand apart in the source and are kept apart here.

T1: human CD73 on human tumor cell lines (human, UniProt P21589 27-549)
T1 sequence (looked up): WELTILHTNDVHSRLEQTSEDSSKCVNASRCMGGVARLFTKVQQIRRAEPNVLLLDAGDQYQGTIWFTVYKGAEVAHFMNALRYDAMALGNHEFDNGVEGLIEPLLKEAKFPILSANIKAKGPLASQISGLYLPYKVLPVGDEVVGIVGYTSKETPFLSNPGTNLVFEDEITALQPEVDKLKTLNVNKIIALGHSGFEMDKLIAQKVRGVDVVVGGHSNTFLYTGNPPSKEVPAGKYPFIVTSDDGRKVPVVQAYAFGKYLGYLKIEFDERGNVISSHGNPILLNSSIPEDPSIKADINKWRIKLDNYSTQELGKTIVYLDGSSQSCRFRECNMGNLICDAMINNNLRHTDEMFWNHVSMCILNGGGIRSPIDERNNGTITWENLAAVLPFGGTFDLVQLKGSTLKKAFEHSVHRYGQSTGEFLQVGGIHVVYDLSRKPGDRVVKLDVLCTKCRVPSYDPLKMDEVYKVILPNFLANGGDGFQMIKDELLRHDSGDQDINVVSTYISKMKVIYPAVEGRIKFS

T2: N-terminal domain of hCD73 (residues 26-336 of human CD73), his-tagged (human, UniProt P21589 26-336)
T2 construct: also called N-hCD73; N-hCD73-his
T2 sequence (looked up): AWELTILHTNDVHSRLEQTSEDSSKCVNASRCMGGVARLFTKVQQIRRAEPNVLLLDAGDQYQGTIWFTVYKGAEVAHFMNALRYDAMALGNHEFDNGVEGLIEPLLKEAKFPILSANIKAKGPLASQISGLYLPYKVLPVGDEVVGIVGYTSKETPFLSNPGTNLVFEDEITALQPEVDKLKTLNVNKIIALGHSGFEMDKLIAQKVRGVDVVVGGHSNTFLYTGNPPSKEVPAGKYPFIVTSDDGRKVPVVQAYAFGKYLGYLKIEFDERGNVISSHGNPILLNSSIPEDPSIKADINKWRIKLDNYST

T3: full length extracellular domain of human-CD73 with C-terminal polyhistidine tag (residues 26-546) (human, UniProt P21589 26-546)
T3 construct: range 26-546; also called hCD73-his; CD73-his
T3 sequence (looked up): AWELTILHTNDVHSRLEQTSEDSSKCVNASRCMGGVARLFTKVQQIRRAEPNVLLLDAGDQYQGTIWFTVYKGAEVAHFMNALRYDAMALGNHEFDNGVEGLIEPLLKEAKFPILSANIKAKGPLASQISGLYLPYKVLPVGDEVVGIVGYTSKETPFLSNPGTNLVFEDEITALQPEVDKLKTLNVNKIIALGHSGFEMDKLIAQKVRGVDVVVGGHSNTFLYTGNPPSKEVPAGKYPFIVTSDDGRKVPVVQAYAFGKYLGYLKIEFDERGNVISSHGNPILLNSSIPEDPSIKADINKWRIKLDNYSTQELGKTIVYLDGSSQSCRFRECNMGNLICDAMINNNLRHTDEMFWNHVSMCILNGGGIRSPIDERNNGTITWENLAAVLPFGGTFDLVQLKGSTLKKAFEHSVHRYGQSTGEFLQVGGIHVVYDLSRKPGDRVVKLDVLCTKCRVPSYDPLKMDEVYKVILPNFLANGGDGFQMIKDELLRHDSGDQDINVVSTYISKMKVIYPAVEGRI

B1: CD73.10-IgG2-C219S (antibody)
heavy: QVQLVESGGGVVQPGRSLRLSCAASGFTFSNYGMHWVRQAPGKGLEWVAVIWYDESNKYYPDSVKGRFTISRDNSKNTLYLQMNSLRAEDTAVYYCARGGSSWYPDSFDIWGQGTMVTVSSASTKGPSVFPLAPCSRSTSESTAALGCLVKDYFPEPVTVSWNSGALTSGVHTFPAVLQSSGLYSLSSVVTVPSSNFGTQTYTCNVDHKPSNTKVDKTVERKSCVECPPCPAPPVAGPSVFLFPPKPKDTLMISRTPEVTCVVVDVSHEDPEVQFNWYVDGVEVHNAKTKPREEQFNSTFRVVSVLTVVHQDWLNGKEYKCKVSNKGLPAPIEKTISKTKGQPREPQVYTLPPSREEMTKNQVSLTCLVKGFYPSDIAVEWESNGQPENNYKTTPPMLDSDGSFFLYSKLTVDKSRWQQGNVFSCSVMHEALHNHYTQKSLSLSPG
light: not shown
notes: anti-CD73; also called CD73.10-IgG2CS; CD73.10-Vh-hHC-IgG2-C219S
B2: CD73.10-IgG2-C219S-IgG1.1 (antibody)
heavy: B1 heavy with Q274K, F296Y, F300Y, V309L, G327A, A330S, P331S, T339A
light: not shown
notes: anti-CD73; also called CD73.10-IgG2CS-IgG1.1f; CD73.10-Vh-hHC-IgG2-C219S-IgG1.1f
B3: CD73.4-IgG2-C219S (antibody)
heavy: B1 heavy with W52L, E55G
light: not shown
notes: anti-CD73; also called CD73.4-IgG2CS; CD73.4-IgG2.3
B4: 11F11 (antibody, human IgG2, kappa, V domains shown)
VH: QVQLVESGGGVVQPGRSLRLSCATSGFTFSNYGMHWVRQAPGKGLEWVAVILYDGSNKYYPDSVKGRFTISRDNSKNTLYLQMNSLRAEDTAVYYCARGGSSWYPDSFDIWGQGTMVTVSS
VL: DIQMTQSPSSLSASVGDRVTITCRASQGISSWLAWYQQKPEKAPKSLIYAASSLQSGVPSRFSGSGSGTDFTLTISSLQPEDFATYYCQQYNSYPLTFGGGTKVEIKR
notes: hybridoma derived anti-CD73 antibody, IgG2 constant region; also called 11F11(IgG2)

Assays:
[1] = target: T1, human CD73 on human tumor cell lines; assay: cell-based or functional assay
[2] = target: T2, N-terminal domain of hCD73 (residues …); assay: SPR Biacore T100, mAb captured on protein A, N-hCD73-his analyte, 25 C; separate experiment
Protocol: (§1) The affinity of the antibodies for human CD73 was measured to determine whether the change of the constant region affects them. The affinities were determined by Surface Plasmon Resonance (SPR) as follows. […] For these experiments, protein A (Pierce) was immobilized to a density of 3000-4000 RU on flow cells 1-4 of a CM5 sensor chip (GE Healthcare) using standard ethyl(dimethylaminopropyl) carbodiimide (EDC)/N-hydroxysuccinimide (NHS) chemistry, with ethanolamine blocking, in a running buffer of 0.01 M HEPES pH 7.4, 0.15 M NaCl, 3 mM EDTA, 0.005% v/v tween 20. Kinetic experiments were performed by first capturing antibodies (5-10 ug/ml) on the protein A surfaces using a 30 s contact time at 10 ul/min, with binding of 600, 200, 66.7, 22.2, 7.4, and 2.5 nM N-hCD73-his, using a 180 s association time and 360 s dissociation time at a flow rate of 30 ul/min. The running buffer for the kinetic experiments was 10 mM sodium phosphate, 130 mM sodium chloride, 0.05% tween 20, pH 7.1. The surfaces were regenerated after each cycle using two 30 s pulses of 10 mM glycine pH 1.5 at a flow rate of 30 μl/min. Sensogram data was double-referenced and then fitted to a 1:1 Langmuir model using Biacore T100 evaluation software v2.0.4, to determine the association rate constant (ka), the dissociation rate constant (kd), and the equilibrium dissociation constant (KD).

[3] = target: T1, human CD73 on human tumor cell lines; assay: cell-based or functional assay; remark: listed apart in the source
[4] = target: T2, N-terminal domain of hCD73 (residues …); assay: SPR Biacore T100, mAb captured on protein A, N-hCD73-his analyte, 25 C
Protocol: as §1

[5] = target: T1, human CD73 on human tumor cell lines; assay: cell-based or functional assay; remark: listed apart in the source
[6] = target: T3, full length extracellular domain of …; assay: SEC, 1:1 molar mix 5.5 uM each
Protocol: The oligomeric state of CD73/antibody complexes were examined by size-exclusion chromatography coupled to an in-line multi-angle light scattering detector (SEC-MALS). Isocratic separations were performed on a Shodex PROTEIN KW-803 column connected to an Prominence Shimadzu UFLC in buffer containing 200 mM K₂HPO₄, 150 mM NaCl, pH 6.8, containing 0.02% Na azide (0.1 μm filtered) running at 0.5 mL/min. Samples were injected onto the column using a SIL-20AC Prominence Shimadzu autosampler, and data were obtained from three online detectors connected in series: a Prominence SPD-20AD diode array UV/vis spectrophotometer followed by a Wyatt miniDAWN™ TREOS Multi-Angle Light Scattering Detector then a Wyatt Optilab T-rEX Refractive Index Detector. Data were collected and analyzed using Astra (Wyatt) and Labsolutions (Shimadzu) software.
CD73.4 antibodies having the heavy chain constant regions set forth in Table 14 were also tested for formation of high molecular weight complexes by SEC-MALS and DLS experiments, as described in Example 3.

[7] = target: T1, human CD73 on human tumor cell lines; assay: cell-based or functional assay; remark: listed apart in the source

Row | Binder | % internalization, Calu6 [1] | % internalization, H2030 [1] | % internalization, H2228 [1] | % internalization, HCC15 [1] | T1/2 internalization, Calu6 [1] | T1/2 internalization, H2030 [1] | T1/2 internalization, H2228 [1] | T1/2 internalization, HCC15 [1] | Kd [2] | koff [2] | kon [2] | EC50 of CD73 internalization, Calu6, 2 h [3] | Ymax of CD73 internalization, Calu6, 2 h [3] | Kd [4] | koff [4] | kon [4] | also measured
1 | B1 | 91% | 85% | 93% | 91% | 3 min | 3.3 min | 9.7 min | 2.6 min | 8.3 nM | 0.0018 s⁻¹ | 220000 M⁻¹ s⁻¹ | 0.67 nM | 99 % of 100 nM 11F11 | 6.2 nM | 0.0014 s⁻¹ | 220000 M⁻¹ s⁻¹ | 
2 | B2 | 91% | 87% | 92% | 91% | 3.1 min | 4.3 min | 9.4 min | 3 min | 6.8 nM | 0.0016 s⁻¹ | 230000 M⁻¹ s⁻¹ | 0.87 nM | 99 % of 100 nM 11F11 | 5.7 nM | 0.0014 s⁻¹ | 240000 M⁻¹ s⁻¹ | 
3 | B3 | 88% | 89% | 94% | 94% | 6.5 min | 3.7 min | 13.8 min | 3.1 min |  |  |  |  |  | 0.55 nM |  |  | T1/2 internalization, Calu6 [5]: 36 min; T1/2 internalization, NCI-H292 [5]: 16.6 min; Ymax internalization, Calu6 [5]: 75.6%; Ymax internalization, NCI-H292 [5]: 78.4%; UV % Peak1 <12.9 min [6]: 37%; UV % Peak3 15.1-16.7 min [6]: 7.7%; UV % Peak4 16.7-19.3 min (free mAb) [6]: 28.6%; UV % Peak5 >19.3 min [6]: 2.9%; T1/2 internalization, Calu6 [7]: 22.4 min and 21.8 min; T1/2 internalization, NCI-H292 [7]: 17.2 min and 17.1 min
4 | B4 |  |  |  |  |  |  |  |  | 0.56 nM | 0.00016 s⁻¹ | 290000 M⁻¹ s⁻¹ | 0.58 nM | 98 % of 100 nM 11F11 | 1.6 nM | 0.00042 s⁻¹ | 260000 M⁻¹ s⁻¹ | 
